Laboratory results taken from patent US20260034253A1, “NECTIN-4 MINIPROTEIN CONJUGATES” (Aktis Oncology, Inc., priority 2022, published 2026).
One block for each molecule: values may come before it. Bridge positions count the residues as written; N and C are the ends. Primed or numbered codes have the meaning given here. * marks the point of attachment. DOTA = O=C(O)CN1CCN(CC(=O)O)CCN(CC(=O)*)CCN(CC(=O)O)CC1; PEG4′ = polyethylene glycol (PEG4) linker

Key:
[1] = previously published, Challita-Eid et al Cancer Res (2016); cited from earlier work
[2] = Plasma pharmacokinetic analysis in Sprague Dawley rats; assay type: in vivo; settings: rat, bolus intravenous injection, read-out: PK DATA (t½ - min)
Procedure: Nine blood collection timepoints are taken from 2-24 hours, processed to plasma with K2EDTA, and are frozen for subsequent bioanalysis. Plasma miniprotein concentrations are measured by LC-MS/MS. Plasma FITC-sinistrin is measured fluorometrically. […] Finally, non-compartmental analysis is performed to estimate plasma pharmacokinetic parameters.
Exemplary pK data for exemplary Nectin-4 miniprotein monomers were tested in vivo (t1/2 mins), showing an average pK for these exemplary compounds.

[3] = target: T1, Nectin-4 on HT1376 urothelial cancer cells (UniProt Q96NY8 32-510); assay: saturation radioligand binding (Lu-177) on HT1376 cells, 4 C, gamma counting
T1 construct: whole, on cells; also called HT1376 cells
T1 sequence (looked up): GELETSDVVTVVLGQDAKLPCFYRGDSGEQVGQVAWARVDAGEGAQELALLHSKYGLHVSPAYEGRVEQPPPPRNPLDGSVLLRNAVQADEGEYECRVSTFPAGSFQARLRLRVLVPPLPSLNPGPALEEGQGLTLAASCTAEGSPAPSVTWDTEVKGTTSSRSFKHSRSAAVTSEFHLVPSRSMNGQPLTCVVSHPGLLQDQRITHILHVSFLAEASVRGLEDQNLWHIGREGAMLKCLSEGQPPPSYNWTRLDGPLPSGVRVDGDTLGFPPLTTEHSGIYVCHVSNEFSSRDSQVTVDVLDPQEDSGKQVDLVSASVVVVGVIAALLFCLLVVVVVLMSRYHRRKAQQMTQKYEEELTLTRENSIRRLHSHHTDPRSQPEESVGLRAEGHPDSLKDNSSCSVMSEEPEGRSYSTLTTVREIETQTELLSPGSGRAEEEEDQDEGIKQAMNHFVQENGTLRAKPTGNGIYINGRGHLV
Procedure: Radioligand binding was performed in HT1376 urothelial cancer cells by method of saturation. Cells were seeded at 20,000 cells per well in 96-well format 48 hours prior to assay. Lutetium-177-labeled radioconjugates of C215 and C117 were incubated with cells at 4 deg C. for 1 h at various increasing concentrations of radioligand. At the end of incubation cells were washed three times with PBS and radioactivity was quantified by gamma counting as shown in Table 3.

Molecule: enfortumab vedotin
PK DATA (t½ - min) [1]: 2,476.8 min | PK DATA (t½) [1]: 41.3 h

Molecule: CC[C@H](C)[C@@H]1NC(=O)[C@H](CC(=O)O)NC(=O)CNC(=O)CNC(=O)[C@H](CCCNC(N)=O)NC(=O)[C@H](CC(C)C)NC(=O)[C@H](CCCNC(N)=O)NC(=O)[C@H](CCCCNC(C)=O)NC(=O)[C@H](CC(C)C)NC(=O)[C@H](C)NC(=O)[C@H]([C@@H](C)O)NC(=O)[C@H](Cc2ccccc2)NC(=O)[C@H](Cc2ccccc2)NC(=O)[C@H](CCC(=O)O)NC(=O)[C@H](CCC(=O)O)NC(=O)[C@H](CC(=O)O)NC(=O)[C@H](Cc2ccc(O)cc2)NC(=O)[C@H](CCC(=O)O)NC(=O)[C@@H](NC(=O)CCOCCOCCOCCOCCNC(=O)CN2CCN(CC(=O)O)CCN(CC(=O)O)CCN(CC(=O)O)CC2)CSSC[C@@H]2NC(=O)[C@H](CC(C)C)NC(=O)[C@H](CCCCN)NC(=O)[C@@H]3CCCN3C(=O)[C@H](C(C)C)NC(=O)[C@H](CCCCN)NC(=O)[C@H](CCCCN)NC(=O)[C@H](Cc3ccccc3)NC(=O)[C@H](CCCCN)NC(=O)[C@H](CCCCN)NC(=O)[C@H](CCCCN)NC(=O)[C@H]([C@@H](C)CC)NC(=O)[C@H](Cc3ccc(O)cc3)NC(=O)[C@H](Cc3ccc(O)cc3)NC(=O)[C@H](CSSC[C@@H](C(N)=O)NC(=O)CNC(=O)[C@H](CC(C)C)NC(=O)[C@H](CCCCNC(C)=O)NC(=O)[C@H](CC(=O)O)NC(=O)[C@H](CC(C)C)NC(=O)[C@H]([C@@H](C)CC)NC(=O)[C@H](CCC(=O)O)NC(=O)[C@H](CCC(=O)O)NC(=O)[C@H]([C@@H](C)CC)NC2=O)NC1=O [Compound C217]
half-life [2]: 31.4 min

Molecule: CC[C@H](C)[C@@H]1NC(=O)[C@H](CC(=O)O)NC(=O)CNC(=O)CNC(=O)[C@H](CCCNC(=N)N)NC(=O)[C@H](CC(C)C)NC(=O)[C@H](CCCNC(=N)N)NC(=O)[C@H](CCCCN)NC(=O)[C@H](CC(C)C)NC(=O)[C@H](C)NC(=O)[C@H]([C@@H](C)O)NC(=O)[C@H](Cc2ccccc2)NC(=O)[C@H](Cc2ccccc2)NC(=O)[C@H](CCC(=O)O)NC(=O)[C@H](CCC(=O)O)NC(=O)[C@H](CC(=O)O)NC(=O)[C@H](Cc2ccc(O)cc2)NC(=O)[C@H](CCC(=O)O)NC(=O)[C@@H](NC(=O)CCOCCOCCOCCOCCNC(=O)CN2CCN(CC(=O)O)CCN(CC(=O)O)CCN(CC(=O)O)CC2)CSSC[C@@H]2NC(=O)[C@H](CC(C)C)NC(=O)[C@H](CCCCNC(C)=O)NC(=O)[C@@H]3CCCN3C(=O)[C@H](C(C)C)NC(=O)[C@H](CCCCNC(C)=O)NC(=O)[C@H](CCCCNC(C)=O)NC(=O)[C@H](Cc3ccccc3)NC(=O)[C@H](CCCCNC(C)=O)NC(=O)[C@H](CCCCNC(C)=O)NC(=O)[C@H](CCCCNC(C)=O)NC(=O)[C@H]([C@@H](C)CC)NC(=O)[C@H](Cc3ccc(O)cc3)NC(=O)[C@H](Cc3ccc(O)cc3)NC(=O)[C@H](CSSC[C@@H](C(N)=O)NC(=O)CNC(=O)[C@H](CC(C)C)NC(=O)[C@H](CCCCN)NC(=O)[C@H](CC(=O)O)NC(=O)[C@H](CC(C)C)NC(=O)[C@H]([C@@H](C)CC)NC(=O)[C@H](CCC(=O)O)NC(=O)[C@H](CCC(=O)O)NC(=O)[C@H]([C@@H](C)CC)NC2=O)NC1=O [Compound C216]
half-life [2]: 31.4 min

Kd [3]: 0.89 nM
Molecule: {DOTA-PEG4′}-CEYDEEFFTALKRLRGGDICYYIQAKFQYLPKLCIEEILDNLGCS-OH (designed binder, disulfide 1-34, 20-44; also: DOTA labeled with lutetium-177) [Lutetium-177-labeled radioconjugate of C117]
